Assays:
tau FRET peptide = experiment: FRET assay of tau protease activity; assay type: biochemical; settings: 10, 25 or 50 μg oligomerized protein, 2.5 μg FRET peptide, 17 hrs at 37° C.
From the text: The FRET assay peptide substrate is composed of nine amino acids surrounding the autoproteolytic cut site after Lys 340 in tau 4R2N with the fluorescent molecule methylcoumarin (MCA) at the amino terminus and the fluorescence quenching molecule dinitrophenol (DNP) at the C-terminus using an additional Lys at the C-terminus to conjugate it to the peptide: MCA-[…]-{Lys(DNP} (SEQ ID NO:18). The concept is that when tau protease cuts the peptide the quench is dissociated from the fluor such that there is a detectable increase in the fluorescence signal in the assay. This assay can be used to monitor tau protease activity to screen small molecule compounds, peptides or antibodies that modulate tau protease activity. This assay can also be used to characterize enzyme kinetics and optimize the buffer conditions for tau protease. […]
A FRET assay was conducted to determine if the Tau 4R2N 260-340 construct has protease activity using the tau FRET peptide described in FIG. 22 and FIG. 23. […] To determine the background values for the wells of the 96-well plate 95 microliter of buffer was added to the wells of a black 96-well Microfluor I plate (ThermoFisher Scientific) and an EnVision plate reader was used to determine signal (as described in FIG. 23). 5 μL of each sample was mixed with the buffer in the wells and the signal was determined. […]

[1] = Tau protease enzymatic activity of truncated tau peptides (general statement); assay type: biochemical
[2] = system: Tau 4R2N (amino acids 335-353) peptide substrate; experiment: Peptide digest HPLC assay of tau protease activity; assay type: biochemical, human; settings: oligomerized truncated tau, 37° C., overnight (TP-210) or 44 hr (TP-99)
From the text: N-terminal sequencing of fragments using mass spectrometry identified autoproteolytic cut sites. In particular, cutting at the Lys340-Ser341 (340KS341) cut site occurred readily. Therefore, a 19-amino acid peptide corresponding to amino acids 335G to 353L of tau protein was synthesized that contained the KS cut site (340KS341). The reaction was monitored by reverse-phase high-pressure liquid chromatography (HPLC). […] An asterisk marks a non-specific contaminant that was used as a marker. […] 10 μg of tau peptide 335-353 ([…]) (SEQ ID NO:19) was custom synthesized by Genscript (Piscataway, N.J., USA) and 1 mg was dissolved in 1 mL of buffer (25 mM Tris-HCl pH 7.4). […] 32Karat™ LC-CE System, Beckman Coulter, Inc., (Indianapolis, Ind.)] using a linear gradient of acetonitrile in 0.1% TFA 0-60% acetonitrile on an analytical C18 column (12.5 cm×2.1 mm, 5 μm, (Supelco, Bellefonte, Pa., USA). 30 μg of peptide was incubated without tau protease as a negative control and analyzed with the same method;
Cleavage of the peptide substrate for tau protease, Tau 4R2N (amino acids 335-353) […] (SEQ ID NO.19), was used to monitor activity using reverse-phase HPLC. […] The large peak in the lower trace indicated intact peptide was greatly diminished in the upper trace and replaced with two smaller peaks F1 and F2 that represent fragments generated by TP-210. […]

B1: TP-81: 81 amino acid truncated tau peptide, 4R2N 260-340 (SEQ ID NO:5) (protein, listed as Homo sapiens)
chain: MIGSTENLKHQPGGGKVQIINKKLDLSNVQSKCGSKDNIKHVPGGGSVQIVYKPVDLSKVTSKCGSLGNIHHKPGGGQVEVK
For B1, the “cutting of tau FRET peptide” value (tau FRET peptide) was “cuts tau FRET peptide” and the “tau protease enzymatic activity” value [1] was “retain tau protease enzymatic activity”.

B2: TP-210: 210-aa fragment of tau protein, amino acids 131-340 of tau 4R2N plus initiating methionine (SEQ ID NO:1) (protein, listed as Homo sapiens)
chain: MSKDGTGSDDKKAKGADGKTKIATPRGAAPPGQKGQANATRIPAKTPPAPKTPPSSGEPPKSGDRSGYSSPGSPGTPGSRSRTPSLPTPPTREPKKVAVVRTPPKSPSSAKSRLQTAPVPMPDLKNVKSKIGSTENLKHQPGGGKVQIINKKLDLSNVQSKCGSKDNIKHVPGGGSVQIVYKPVDLSKVTSKCGSLGNIHHKPGGGQVEVK
In the case of B2, the “protease activity on tau peptide 335-353 (HPLC)” value [2] is reported as “retained proteolytic activity” and the “tau protease enzymatic activity” value [1] is reported as “retain tau protease enzymatic activity”.

B3: TP-83: 83 amino acid truncated tau peptide, 4R2N 258-340 (SEQ ID NO:4) (protein, listed as Homo sapiens)
chain: MSKIGSTENLKHQPGGGKVQIINKKLDLSNVQSKCGSKDNIKHVPGGGSVQIVYKPVDLSKVTSKCGSLGNIHHKPGGGQVEVK
In the case of B3, the “tau protease enzymatic activity” value [1] is reported as “retain tau protease enzymatic activity”.

B4: TP-99: 99-amino acid fragment of tau 4R2N, amino acids 241-340, plus initiating methionine (SEQ ID NO:3) (protein)
chain: MRLQTAPVPMPDLKNVKSKIGSTENLKHQPGGGKVQIINKKLDLSNVQSKCGSKDNIKHVPGGGSVQIVYKPVDLSKVTSKCGSLGNIHHKPGGGQVEVK
For B4, the “protease activity on tau peptide 335-353 (HPLC)” value [2] was “showed protease activity” and the “tau protease enzymatic activity” value [1] was “retain tau protease enzymatic activity”.

Reference: patent US10597649B2, “Tau protease compositions and methods of use” (Oligomerix, Inc., priority 2011, dated 2020)
